Laboratory results taken from patent publication EP4682169A1.

What was measured:
[1] = biological target: human Claudin18.1 expressed on cells (human) (UniProt P56856); assay: flow cytometry on 293FT-hClaudin18.1 cells, antibody 10 ug/mL, cells with antibody binding/total cells
[2] = biological target: human Claudin18.2 expressed on cells (human) (UniProt P56856); assay: flow cytometry on 293FT-hClaudin18.2 cells, antibody 10 ug/mL, cells with antibody binding/total cells
[3] = biological target: human Claudin18.1 expressed on cells (human) (UniProt P56856); assay: flow cytometry on 293FT CLDN18.1-Luc cells, APC anti-mouse IgG Fc

Binder	binding percentage [1]	binding percentage [2]	EC50 [3]
1-hIgG1Fc (Fc fusion, not shown: a dimerising Fc or GST) EVQLVGSGGGLVQPGGSLRLSCAASGSILNLMTTGWYRQAPGKQRDLVATITFGGTTNYADSVKGRFTISRDKSKNTAYLQMDNLKPEDTAVYFCYADVIVGFQDRRVAWDAGTQVTVSS	2.75%	88.9%	
5-hIgG1Fc (Fc fusion, not shown: a dimerising Fc or GST) QVQLVESGGGLVQTGGSLRLSCAASDSTFSSYIMGWFRQAPGKEREFVAGITWSGGIKDYADSVKGRFTIARDNAKNTVYLQMNSLKPEDAAIYYCAANAIQLTRRSGDYAYWGQGTQVTVSS	2.06%	96%	
8-hIgG1Fc (Fc fusion, not shown: a dimerising Fc or GST) QVQLVESGGGLVQPGGSLRLSCAASGSIFGLNFMGWWRQAPGSQRELVAIATSGGSIQYGDSVKGRFTISRDNAKNTVYLQMASLKPEDTAVYYCNVHTYDFLGRDYWGQGTQVTVSL	2.26%	93.9%	
10-hIgG1Fc (Fc fusion, not shown: a dimerising Fc or GST) QVQLAESGGGLVQPGGSLRLSCAASGNILSINYMGWYRQAPGKERELVATITRGGTTNYQGDLKGRFIISGDNTKDTVYLQMNNLQPEDTAVYYCYFRINFGILGGLRDYWGQGTQVTVSS	2.06%	96.1%	
2-mIgG2aFc (Fc fusion, not shown: a dimerising Fc or GST) EVQLVESGGGLVQPGGSLRLSCAASGNILSINYMGWYRQAPGKERELVATITRGGSTNYQGNLKGRFIISGDNTKDTVYLQMNNLQPEDTAVYYCYFRINFGILGGLRDYWGQGTQVTVSS			133 nM
